Measurements as given in patent publication US20110093964A1 (COMMISSARIAT A L ENERGIE ATOMIQUE, published 2011).

Target: native bovine brain calmodulin (bovine, UniProt P62157 2-149)
Experiment: tryptophan fluorescence of 5 uM MLCKp (excitation 280 nm) in 10 mM MES pH 6.5, one equivalent of calmodulin, no metals

B1: MLCKp peptide, 17 residues, derived from the calmodulin-binding domain of a rabbit muscle myosin light chain kinase (CALBIOCHEM) (peptide)
peptide: Ac-RRKWQKTGHAVRAIGRL-NH2
notes: Its tryptophan is the fluorescent probe of the assay; also called calmodulin ligand peptide; the ligand
**Q.** Does B1 bind?
**A.** binds
